Assay results as given in article PMC2270346.

Molecular target: mouse Wnt3a, His-tagged (mouse) (UniProt P27467)
Sequence of UniProt P27467 (P27467 19-352): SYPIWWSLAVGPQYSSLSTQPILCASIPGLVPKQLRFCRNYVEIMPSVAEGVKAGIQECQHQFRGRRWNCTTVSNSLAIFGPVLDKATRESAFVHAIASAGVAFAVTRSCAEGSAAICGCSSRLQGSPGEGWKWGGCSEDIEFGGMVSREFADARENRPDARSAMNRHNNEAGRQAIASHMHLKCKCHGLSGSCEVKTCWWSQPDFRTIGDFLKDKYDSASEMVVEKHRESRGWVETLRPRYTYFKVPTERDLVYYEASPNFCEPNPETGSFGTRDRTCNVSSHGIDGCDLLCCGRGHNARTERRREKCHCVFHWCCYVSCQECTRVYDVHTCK

Substance	suppression of Wnt3a-induced beta-catenin-TCF-regulated transcription (SUPER8XTOPFLASH reporter) in HEK293T and Huh-7 cells cotransfected with Wnt3a [%]
human V3Nter, V5-tagged (domain or fragment)	> 80
human FZC18 module, myc-tagged (domain or fragment)	> 80
